We go through eight molecules from PMC3675580, “Stabilization, Characterization, and Selective Removal of Cystatin C Amyloid Oligomers*” (The Journal of Biological Chemistry, 2013).

“And” between values parts separate entries of the source, which are not always exact repeats. Equal entries are not always repeated.

Data set [1] deals with stab1 cystatin C (L47C/G69C), disulfide-stabilized monomer (human) (UniProt P01034). Description: MALDI-TOF MS; isolated oligomers 1 mg/ml in 150 mM ammonium bicarbonate pH 7.8 (nonreducing), matrix 2,6-dihydroxyacetophenone.
The target is the same in data set [2]. Briefly: native gel or EMSA; agarose gel electrophoresis under native conditions; stab1 cystatin C 0.2 mg/ml (15 uM) in PBS pH 7.4, 0.5 or 1.0 M GdnHCl, 1:1 molar equivalents of DTT, 24 h at 40 C.
Data set [3] deals with Mammalian legumain (EC 3.4.22.34) (pig).
Data set [4] concerns the molecule itself. Briefly: SEC; SEC at the end of the purification of refolded L68Q cystatin C.
Data set [5] concerns the molecule itself. Briefly: SDS-PAGE in 0.1% SDS of unboiled, nonreduced samples; 1 mg/ml in 50 mM sodium acetate pH 4.0, 100 mM NaCl, 48 C, 900 rpm, 4 h; gel run at 4 C, silver-stained.

In the case of “stab1 cystatin C (L47C/G69C), disulfide-stabilized monomer (from UniProt P01034 27-146)”, the stoichiometry N (monomeric subunits) in data set [1] amounted to 2.
As to “stab1 cystatin C (L47C/G69C), disulfide-stabilized monomer (from UniProt P01034 27-146) (natural protein)”, the stoichiometry N (monomeric subunits) in data set [1] was 4 and 3. In addition, in data set [2], the stoichiometry N turned out to be 2.
As to “stabilized cystatin C decamer (stab1, L47C/G69C) (from UniProt P01034 27-146) (complex)”, the inhibitory capacity toward legumain (fluorogenic substrate Z-Ala-Ala-Asn-AMC), equal mass concentrations in data set [3] was 93%.
As for “stabilized cystatin C dimer (stab1, L47C/G69C) (from UniProt P01034 27-146) (complex)”, the inhibitory capacity toward legumain (fluorogenic substrate Z-Ala-Ala-Asn-AMC), equal mass concentrations in data set [3] was 102%.
As to “stabilized cystatin C trimer (stab1, L47C/G69C) (from UniProt P01034 27-146) (complex)”, in data set [3], the inhibitory capacity toward legumain (fluorogenic substrate Z-Ala-Ala-Asn-AMC), equal mass concentrations was determined as 99%.

B1: stabilized cystatin C high molecular weight oligomers (stab1, L47C/G69C) (complex)
chain: SSPGKPPRLVGGPMDASVEEEGVRRALDFAVGEYNKASNDMYHSRACQVVRARKQIVAGVNYFLDVELCRTTCTKTQPNLDNCPFHDQPHLKRKAFCSFQIYAVPWQGTMTLSKSTCQDA
modifications: intermolecular disulfide bridges (the paper: most likely Cys47-Cys69)
Turning to B1, the inhibitory capacity toward legumain (fluorogenic substrate Z-Ala-Ala-Asn-AMC), equal mass concentrations in data set [3] was determined as 55%.

B2: L68Q cystatin C (natural protein, human, UniProt P01034 27-146, looked up)
chain: SSPGKPPRLVGGPMDASVEEEGVRRALDFAVGEYNKASNDMYHSRALQVVRARKQIVAGVNYFLDVEQGRTTCTKTQPNLDNCPFHDQPHLKRKAFCSFQIYAVPWQGTMTLSKSTCQDA
notes: cystatin C, human, hereditary cystatin C amyloid angiopathy variant L68Q; also called L68Q cystatin C variant; disease-associated L68Q variant
Regarding B2, the “stoichiometry N” value in data set [4] amounted to 2.

B3: human wild type cystatin C (natural protein, UniProt P01034 27-146, looked up)
chain: SSPGKPPRLVGGPMDASVEEEGVRRALDFAVGEYNKASNDMYHSRALQVVRARKQIVAGVNYFLDVELGRTTCTKTQPNLDNCPFHDQPHLKRKAFCSFQIYAVPWQGTMTLSKSTCQDA
notes: cystatin C, human, wild type; Mr 13,343; also called wt cystatin C; wt monomer; source: E. coli periplasmic extract, purified (ion-exchange, SEC), lyophilized
For B3, the binding result in data set [5] was “binds”.
